Laboratory results reported in IntAct's records for PubMed 20837657.

B1: Segment polarity protein dishevelled (Drosophila melanogaster (Fruit fly)), P51140 (parent)
chain: MDADRGGGQETKVIYHIDDETTPYLVKIPIPSAQVTLRDFKLVLNKQNNNYKYFFKSMDADFGVVKEEIADDSTILPCFNGRVVSWLVSADGTNQSDNCSELPTSECELGMGLTNRKLQQQQQQHQQQQQQQQQQHQQQQQQQQQQVQPVQLAQQQQQQVLHHQKMMGNPLLQPPPLTYQSASVLSSDLDSTSLFGTESELTLDRDMTDYSSVQRLQVRKKPQRRKKRAPSMSRTSSYSSITDSTMSLNIITVSINMEAVNFLGISIVGQSNRGGDGGIYVGSIMKGGAVALDGRIEPGDMILQVNDVNFENMTNDEAVRVLREVVQKPGPIKLVVAKCWDPNPKGYFTIPRTEPVRPIDPGAWVAHTQALTSHDSIIADIAEPIKERLDQNNLEEIVKAMTKPDSGLEIRDRMWLKITIPNAFIGADAVNWVLENVEDVQDRREARRIVSAMLRSNYIKHTVNKLTFSEQCYYVVNEERNPNLLGRGHLHPHQLPHGHGGHALSHADTESITSDIGPLPNPPIYMPYSATYNPSHGYQPIQYGIAERHISSGSSSSDVLTSKDISASQSDITSVIHQANQLTIAAHGSNKSSGSSNRGGGGGGGGGGNNTNDQDVSVFNYVL

Variants of: B1
Conditions: with abl_drome Abl

effect of a mutation on the interaction	Variant
decreasing interaction strength	Y473F
